Results as given in article PMC9329948, “Surface-Enhanced Carboxyphenyl Diazonium Functionalized Screen-Printed Carbon Electrode for the Screening of Tuberculosis in Sputum Samples”.

Tests used:
CFP10 antigen [1] = target: T1, CFP10 antigen (Mycobacterium tuberculosis, UniProt P9WNK5 2-100); experiment: ELONA; no significant difference from aptamer-alone control; ELONA: antigen coated in 0.06 M carbonate pH 9.6, 3% BSA block, aptamer 2 h at room temperature, 0.01 M PBS washes; aptamer/electrode binding buffer 20 mM Tris-HCl pH 7.4, 150 mM NaCl, 2 mM MgCl2, 2 mM KCl, 2 mM CaCl2, room temperature; details: protein: recombinant; label: biotin
MPT64 antigen [2] = target: T2, MPT64 antigen (Mycobacterium tuberculosis, UniProt P9WIN9 24-228); experiment: ELONA; 5 uM aptamer; antigen coated at 5 ug/mL; p < 0.0001 vs control; ELONA: antigen coated in 0.06 M carbonate pH 9.6, 3% BSA block, aptamer 2 h at room temperature, 0.01 M PBS washes; aptamer/electrode binding buffer 20 mM Tris-HCl pH 7.4, 150 mM NaCl, 2 mM MgCl2, 2 mM KCl, 2 mM CaCl2, room temperature; details: protein: recombinant; label: biotin
CFP10 antigen [3] = target: T1, CFP10 antigen; experiment: amperometric sandwich aptasensor; selectivity test; read-out also needs anti-MPT64 antibody; ELONA: antigen coated in 0.06 M carbonate pH 9.6, 3% BSA block, aptamer 2 h at room temperature, 0.01 M PBS washes; aptamer/electrode binding buffer 20 mM Tris-HCl pH 7.4, 150 mM NaCl, 2 mM MgCl2, 2 mM KCl, 2 mM CaCl2, room temperature; details: protein: recombinant
MPT64 antigen [4] = target: T2, MPT64 antigen; experiment: amperometric sandwich aptasensor; HRP anti-MPT64 antibody detection; LOD 1.11 ng/mL, linear 5-200 ng/mL; ELONA: antigen coated in 0.06 M carbonate pH 9.6, 3% BSA block, aptamer 2 h at room temperature, 0.01 M PBS washes; aptamer/electrode binding buffer 20 mM Tris-HCl pH 7.4, 150 mM NaCl, 2 mM MgCl2, 2 mM KCl, 2 mM CaCl2, room temperature; details: protein: recombinant

T1 sequence (P9WNK5 2-100): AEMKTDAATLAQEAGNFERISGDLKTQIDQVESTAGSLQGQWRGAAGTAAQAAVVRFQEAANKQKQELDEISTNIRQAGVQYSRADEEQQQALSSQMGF
T2 sequence (P9WIN9 24-228): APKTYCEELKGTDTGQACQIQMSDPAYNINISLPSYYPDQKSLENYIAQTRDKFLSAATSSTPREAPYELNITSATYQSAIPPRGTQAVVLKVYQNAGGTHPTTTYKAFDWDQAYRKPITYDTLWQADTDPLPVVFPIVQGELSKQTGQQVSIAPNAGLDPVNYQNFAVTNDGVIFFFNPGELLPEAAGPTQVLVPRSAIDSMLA

Row | Binder | binding result (CFP10 antigen [1]) | binding result (MPT64 antigen [2]) | binding result (CFP10 antigen [3]) | binding result (MPT64 antigen [4])
1 | TTTTTTTTTTGGGAGCTGATGTCGCATGGGTTTTGATCACATGA (ssDNA, biotin, position not stated) [MPT64 aptamer, biotinylated (ELONA)] | no binding | binds |  | 
2 | TTTTTTTTTTGGGAGCTGATGTCGCATGGGTTTTGATCACATGA (ssDNA, 5' AmMC6) [MPT64 aptamer, 5'-amino (electrode)] |  |  | no binding | binds
